Data from patent US20220089745A1 (Biogen, published 2022).

Legend:
[1] = biological target: T1, integrin alpha v beta III ectodomain (SEQ ID NOs: 245 and 3) (human, UniProt P06756 31-992; P05106 27-716); experiment: BLI, monovalent format, yeast purified Fab; drawn table of apparent integrin binding specificity
T1 construct: Purified recombinant ectodomain; also called alpha v beta 3

[2] = biological target: T2, wild type (WT) GPIIb/IIIa ectodomain (heterodimer of SEQ ID NOs: 1 and 3) (human, UniProt P08514 32-993; P05106 27-716); experiment: apparent monovalent affinity for GP2b3a (SEQ ID: 1 and 3); BLI or SPR, the method of each row is not given
T2 construct: Recombinant purified ectodomain; also called GP2b3a; integrin αIIbβ3

[3] = biological target: T1, integrin alpha v beta III ectodomain …; experiment: BLI, yeast purified Fab on sensor-associated AvB3 (sheet head: SEQ ID NOs: 199, 3; legend: SEQ ID NO 245 and 3); Fab concentration not given
[4] = biological target: T1, integrin alpha v beta III ectodomain …; experiment: BLI, yeast purified Fab on sensor-associated AvB3 (sheet head: SEQ ID NOs: 199, 3; legend: SEQ ID NO 245 and 3)
[5] = biological target: T1, integrin alpha v beta III ectodomain …; experiment: as above; remark: listed apart in the source
[6] = biological target: T3, GPIIb/IIIa on gel-purified human platelets (activated or resting) (human, UniProt P08514 32-1039; P05106 27-788); experiment: flow cytometry, Fab on gel-purified human platelets; steeper curve with filled circles, which the legend box labels resting platelets
T3 construct: whole, on cells; Native receptor on platelets; also called integrin αIIbβ3 on platelets; GPIIb/IIIa on platelets

[7] = biological target: T1, integrin alpha v beta III ectodomain …; experiment: BLI, monovalent format, yeast purified Fab; drawn table of apparent integrin binding specificity (legend of FIGS. 20A-D: alpha V beta III is SEQ ID NO 245 and 3)
[8] = biological target: T1, integrin alpha v beta III ectodomain …; experiment: BLI, yeast purified Fab on sensor-associated AvB3 (sheet head: SEQ ID NOs: 199, 3; legend: SEQ ID NO 245 and 3); Fab concentration not given; remark: listed apart in the source

B1: BIIB-4-224 (Fab, V domains shown)
VH: QLQLQESGPGLVKPSETLSLTCTVSGGSISSSSYYWGWIRQPPGKGLEWIGSIYYSGSTYYNPSLKSRVTISVDTSKNQFSLKLSSVTAADTAVYYCARDFYSSVYGMDVWGQGTTVTVSS
VL: DIQLTQSPSSLSASVGDRVTITCRASQSISSFLNWYQQKPGKAPKLLIYAASSLQSGVPSRFSGSGSGTDFTLTISSLQPEDFATYYCQQSYVHPLTFGGGTKVEIK
notes: Tested as Fab made from yeast-expressed, protein A-purified antibody; Only VH and VL are tied to the clone
- binding result [1]: no binding
- Kd [2]: 200 nM

B2: BIIB-4-318 (Fab, V domains shown)
VH: QVQLQESGPGLVKPSETLSLTCAVSGYSISSGYYWGWIRQPPGKGLEWIGSIYHSGSTNYNPSLKSRVTISVDTSKNQFSLKLSSVTAADTAVYYCARSPRWRSTYANWFNPWGQGTLVTVSS
VL: DIQLTQSPSSVSASVGDRVTITCRASQGISSWLAWYQQKPGKAPKLLIYGASSLQSGVPSRFSGSGSGTDFTLTISSLQPEDFATYYCQQAAPFPLTFGGGTKVEIK
notes: as for B1
- binding result [1]: no binding
- Kd [2]: 3 nM

B3: BIIB-4-147 (Fab, V domains shown)
VH: QVQLVQSGAEVKKPGASVKVSCKASGYTFTSYGISWVRQAPGQGLEWMGWISAYNGNTNYAQKLQGRVTMTTDTSTSTAYMELRSLRSDDTAVYYCARDLEYYDSSGYAYGYFDLWGRGTLVTVSS
VL: not shown
notes: as for B1
- Kd [2]: 5 nM
- binding result [3]: no binding

B4: BIIB-4-319 (Fab, V domains shown)
VH: QVQLQESGPGLVKPSETLSLTCAVSGYSISSGYYWAWIRQPPGKGLEWIGSIYHSGSTYYNPSLKSRVTISVDTSKNQFSLKLSSVTAADTAVYYCAREHSSSGQWNVWGQGTMVTVSS
VL: EIVLTQSPATLSLSPGERATLSCRASQSVSSYLAWYQQKPGQAPRLLIYDASNRATGIPARFSGSGSGTDFTLTISSLEPEDFAVYYCQQRSFYFTFGGGTKVEIK
notes: Tested as Fab made from yeast-expressed, protein A-purified antibody; Only VH and VL are tied to the clone; also called BBB-4-319
- binding result [4]: binds

B5: BIIB-4-156 (Fab, V domains shown)
VH: QVQLVQSGAEVKKPGSSVKVSCKASGGTFSSYAISWVRQAPGQGLEWMGGIIPIFGTANYAQKFQGRVTITADESTSTAYMELSSLRSEDTAVYYCARDTGYYGASLYFDYWGQGTLVTVSS
VL: EIVLTQSPATLSLSPGERATLSCRASQSVSSYLAWYQQKPGQAPRLLIYDASNRATGIPARFSGSGSGTDFTLTISSLEPEDFAVYYCQQRSALPRTFGGGTKVEIK
notes: as for B1
- Kd [2]: 11 nM
- binding result [5]: binds
- EC50 (read off the curve) [6]: ~20 nM

B6: BIIB-4-209 (Fab, V domains shown)
VH: QVQLVQSGAEVKKPGASVKVSCKASGYTFTSYGISWVRQAPGQGLEWMGWISAYNGNTNYAQKLQGRVTMTTDTSTSTAYMELRSLRSDDTAVYYCARGRPYDHYFDYWGQGTLVTVSS
VL: EIVLTQSPATLSLSPGERATLSCRASQSVSSYLAWYQQKPGQAPRLLIYDASNRATGIPARFSGSGSGTDFTLTISSLEPEDFAVYYCQQAYNYPFTFGGGTKVEIK
notes: as for B1
- Kd [2]: 98 nM
- binding result [7]: binds

B7: BIIB-4-317 (Fab, V domains shown)
VH: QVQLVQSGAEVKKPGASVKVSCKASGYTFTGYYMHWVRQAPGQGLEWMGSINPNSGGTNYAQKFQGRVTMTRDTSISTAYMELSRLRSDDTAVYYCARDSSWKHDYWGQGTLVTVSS
VL: EIVLTQSPATLSLSPGERATLSCRASQSVSSYLAWFQQKPGQAPRLLIYDASNRATGIPARFSGSGSGTDFTLTISSLEPEDFAVYYCQQYSFYPLTFGGGTKVEIK
notes: as for B1
- binding result [7]: binds

B8: BIIB-4-204 (Fab, V domains shown)
VH: QVQLVQSGAEVKKPGASVKVSCKASGYTFTSYSMHWVRQAPGQGLEWMGIINPSGGSTSYAQKFQGRVTMTRDTSTSTVYMELSSLRSEDTAVYYCARSYDIGYFDLWGRGTLVTVSS
VL: EIVLTQSPATLSLSPGERATLSCRASQSVSSYLAWYQQKPGQAPRLLIYDASKRATGIPARFSGSGSGTDFTLTISSLEPEDFAVYYCQQDSFLPFTFGGGTKVEIK
notes: as for B1
- Kd [2]: 170 nM
- binding result [7]: binds

B9: BIIB-4-311 (Fab, V domains shown)
VH: QVQLVQSGAEVKKPGASVKVSCKASGYTFTSYYMHWVRQAPGQGLEWMGVINPSGGSTSYAQKFQGRVTMTRDTSTSTVYMELSSLRSEDTAVYYCARLMSGSSGSWGQGTLVTVSS
VL: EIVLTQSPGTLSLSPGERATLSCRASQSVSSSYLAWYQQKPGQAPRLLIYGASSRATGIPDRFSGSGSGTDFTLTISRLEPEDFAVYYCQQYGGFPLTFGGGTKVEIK
notes: as for B1
- binding result [1]: no binding
- Kd [2]: 64 nM

B10: BIIB-4-174 (Fab, V domains shown)
VH: QVQLVQSGAEVKKPGSSVKVSCKASGGTFSSYAISWVRQAPGQGLEWMGGIIPIFGTANYAQKFQGRVTITADESTSTAYMELSSLRSEDTAVYYCARGPPSAYGDYVWDIWGQGTMVTVSS
VL: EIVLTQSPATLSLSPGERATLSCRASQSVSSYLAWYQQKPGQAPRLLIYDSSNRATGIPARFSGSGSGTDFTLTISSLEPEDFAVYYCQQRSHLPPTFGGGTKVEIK
notes: as for B1
- Kd [2]: 11 nM
- binding result [8]: no binding

B11: BIIB-4-309 (Fab, V domains shown)
VH: QVQLVQSGAEVKKPGASVKVSCKASGYTFTSYGISWVRQAPGQGLEWMGWISAYNGNTNYAQKLQGRVTMTTDTSTSTAYMELRSLRSDDTAVYYCARDGLGSSPWSAFDIWGQGTMVTVSS
VL: not shown
notes: Tested as Fab made from yeast-expressed, protein A-purified antibody; Only VH and VL are tied to the clone; also called Fab BIIB_4_309
- binding result [1]: no binding
- Kd [2]: 25 nM

B12: BIIB-4-175 (Fab, V domains shown)
VH: EVQLVESGGGLVQPGGSLRLSCAASGFTFSDHHMDWVRQAPGKGLEWVGRTRNKANSYTTEYAASVKGRFTISRDDSKNSLYLQMNSLKTEDTAVYYCARGPPYYADLGMGVWGQGTTVTVSS
VL: EIVMTQSPATLSVSPGERATLSCRASQSVSSNLAWYQQKPGQAPRLLIYGASTRATGIPARFSGSGSGTEFTLTISSLQSEDFAVYYCQQFNLYPYTFGGGTKVEIK
notes: as for B1
- binding result [1]: no binding
- Kd [2]: 15 nM
